The values below come from publication PMC4499147, “Modulation of LSD1 phosphorylation by CK2/WIP1 regulates RNF168-dependent 53BP1 recruitment in response to DNA damage” (Nucleic Acids Research, 2015).

In test [1] the target is bacterially produced HIS-LSD1 (human, UniProt O60341 1-852). The experiment in a line: pull-down; GST fusion (1 μg) with HIS-tagged fusion (1 μg) in 500 μl NETN buffer (20 mM Tris-HCl pH 8.0, 0.15 M NaCl, 1 mM EDTA, 0.5% NP-40) at 4°C overnight; Glutathione-Sepharose beads. Conditions: both partners purified.
In test [2] the target is T1, bacterially produced HIS-RNF168 (human, UniProt Q8IYW5 1-571).
T1 construct: E3 ligase RNF168, human; the bacterial construct is not described; source: bacterially produced
The test is described as above. Conditions: both partners purified.

B1: bacterially produced GST-53BP1-KBD (domain or fragment, human, UniProt Q12888 1234-1616, looked up)
chain: HVLHRHMRTIREVRTLVTRVITDVYYVDGTEVERKVTEETEEPIVECQECETEVSPSQTGGSSGDLGDISSFSSKASSLHRTSSGTSLSAMHSSGSSGKGAGPLRGKTSGTEPADFALPSSRGGPGKLSPRKGVSQTGTPVCEEDGDAGLGIRQGGKAPVTPRGRGRRGRPPSRTTGTRETAVPGPLGIEDISPNLSPDDKSFSRVVPRVPDSTRRTDVGAGALRRSDSPEIPFQAAAGPSDGLDASSPGNSFVGLRVVAKWSSNGYFYSGKITRDVGAGKYKLLFDDGYECDVLGKDILLCDPIPLDTEVTALSEDEYFSAGVVKGHRKESGELYYSIEKEGQRKWYKRMAVILSLEQGNRLREQYGLGPYEAVTPLTKAAD
notes: The limits 1234-1616 are printed for the 53BP1-KBD cDNA clone put into pcDNA3.0; the bacterial construct itself is not described; source: bacterially produced
On to B1, for which the binding result in test [1] and in test [2] was “binds” each time.
